Source: US20070265189A1 (published 2007)

Experiments:
[1] = biological target: T1, Soluble IGF-1R (sIGF-1R), R&D Systems Cat. # 391-GR/CF (UniProt P08069 31-935, limits assumed); assay: phage ELISA
T1 construct: extracellular domain

[2] = biological target: T2, soluble human insulin receptor-immunoglobulin heavy chain chimera (sIR-Fc; Bass et al., 1996) (human, UniProt P06213 28-956, limits assumed); assay: phage ELISA
T2 construct: extracellular domain; also called soluble IR (Bass construct); not shown: immunoglobulin heavy chain constant domains

[3] = biological target: T3, Soluble IGF-1R (R&D Systems, Cat. # 391-GR/CF) (UniProt P08069 31-935, limits assumed); assay: phage ELISA: IGF-1R ratio over background divided by IR ratio over background
T3 construct: extracellular domain; also called sIGF-1R; IGFR

[4] = biological target: T4, Insulin receptor prepared according to Bass et al., 1996 (human, UniProt P06213 28-956, limits assumed); assay: phage ELISA: IR ratio over background divided by IGF-1R ratio over background
T4 construct: extracellular domain; also called IR; soluble IR (Bass construct); not shown: immunoglobulin constant domains (Fc or lambda) of the Bass construct

[5] = biological target: T3, Soluble IGF-1R (R&D Systems, Cat. # …)
[6] = biological target: T4, Insulin receptor prepared according to …
[7] = biological target: human insulin receptor (HIR) (human, UniProt P06213 28-1382, limits assumed); assay: competition with 125I-insulin, solubilised HIR

Row | Binder | IGF-1R/IR comparison [1] | Ratio over Background [1] | IR/IGF-1R comparison [2] | Ratio over Background [2] | Comparison IGF-1R/IR [3] [ratio] | Comparison IR/IGF-1R [4] [ratio] | Ratio over Background, IGF-1R [5] [ratio over background] | Ratio over Background, IR [6] [ratio over background] | Kd [7] [nM]
1 | CCLLCRFQQNFYDWFVCQGISRLRPL [H2CA-2-B4-IGFR] | 3.6 | 4.1 | 0.3 | 1.1 |  |  |  |  | 
2 | DYKDSSETAKMVTGTRDDPFYHKLSELVQGSAAAGAP (not shown: rest of the phage display fusion (remainder of E-Tag, phage coat protein)) [B6Hα-2-D8-IR] |  |  |  |  | 3 | 0.3 | 3 | 1 | 
3 | DYKDGLDHSDAVGVHLGFAWPAQARGRWEAGGLEDTWAGYDWLAAAGAP (not shown: rest of the phage display fusion (remainder of E-Tag, phage coat protein)) [40F-4-B1-IGFR] |  |  |  |  | 13.1 | 0.1 | 3 | 0.2 | 
4 | FYVQQWGHENFYDWFDRQVSQSGGAG [H2CA-4-F1-IGFR] | 3.8 | 3.5 | 0.3 | 0.9 |  |  |  |  | 
5 | DYKDAETSAQVGWQRLWSVWPGDHWSTLDPFYHKLSELLRESGAAAAGAP (not shown: rest of the phage display fusion (remainder of E-Tag, phage coat protein)) [B6L-3-G5-IR] |  |  |  |  | 1.4 | 0.7 | 2 | 1.4 | 
6 | GFREGNFYEWFQAQVT [E4Dα-4-H2-IR] | 4.1 | 33.9 | 0.2 | 8.2 |  |  |  |  | 
7 | TLDGGSFEEQFYDWFVRQLSYRTNPD [H2CA-4-G11-IGFR] | 3.9 | 9.5 | 0.3 | 2.5 |  |  |  |  | 
8 | PPLASDLDVQFYGWFVQQVSPPGRGG [H2CA-2-B3-IGFR] | 3.6 | 3.8 | 0.3 | 1 |  |  |  |  | 
9 | DYKDRCGDEEGWQENRRDDPFYHKLSELFGGCAAAGAP (not shown: rest of the phage display fusion (remainder of E-Tag, phage coat protein)) [B6Hα-3-E5-IR] |  |  |  |  | 2.9 | 0.3 | 2.9 | 1 | 
10 | DYKDCSMAAVAEAGDDDDPFYHKLSELCQGSAAAGAP (not shown: rest of the phage display fusion (remainder of E-Tag, phage coat protein)) [B6Hα-3-F1-IR] |  |  |  |  | 1.8 | 0.5 | 2.4 | 1.3 | 
11 | DYKDGCITAENGAGDPFYHKLSELGGCSAAAGAP (not shown: rest of the phage display fusion (remainder of E-Tag, phage coat protein)) [B6Hα-1-B3-IR] |  |  |  |  | 2.9 | 0.3 | 3.2 | 1.1 | 
12 | RCGRELYHSTFYDWFDRQVAGRTCPS [H2CA-1-A7-IGFR] | 3.7 | 2.2 | 0.3 | 0.6 |  |  |  |  | 
13 | DYKDCGAKMTGTPNDPFYHKLSELLQRGAAAGAP (not shown: rest of the phage display fusion (remainder of E-Tag, phage coat protein)) [B6Hα-3-E6-IR] |  |  |  |  | 1.9 | 0.5 | 2.3 | 1.2 | 
14 | LDQEWAWVQSEVYGRGSPSESFYDWFERQL [S509] |  |  |  |  |  |  |  |  | 5.7
15 | DYKDSRVAATKEKRPSDDPFYHKLSELLQGSAAAGAP (not shown: rest of the phage display fusion (remainder of E-Tag, phage coat protein)) [B6Hα-3-F7-IR] |  |  |  |  | 3.1 | 0.3 | 3.1 | 1 | 
16 | HHHHHHKLDQEWAWVQCEVYGRGCPSESFYDWFERQLG [S481] |  |  |  |  |  |  |  |  | 1.3
17 | DYKDMNVFVSFYDAIDQLVCQRIGCAAAGAP (not shown: rest of the phage display fusion (remainder of E-Tag, phage coat protein)) [20E2A-4-G11-IGFR] |  |  |  |  | 2.6 | 0.4 | 3.3 | 1.3 | 
18 | DYKDVRGFQGGTVWPGYEWLRNAAAAAGAP (not shown: rest of the phage display fusion (remainder of E-Tag, phage coat protein)) [R20β-4-E8-IR] |  |  |  |  | 9.7 | 0.1 | 34.9 | 3.6 | 
19 | QSPVGSSHEDFYDWFFRQVAQSGAHQ [H2CA-3-D6-IGFR] | 4 | 9 | 0.3 | 2.2 |  |  |  |  | 
20 | DYKDQSGSGDFYDWLSRLIRGNGDGAAAGAP (not shown: rest of the phage display fusion (remainder of E-Tag, phage coat protein)) [20E2Bβ-3-C7-IR] |  |  |  |  | 2 | 0.5 | 3.1 | 1.5 | 
21 | LRRQAPVEENFYDWFVRQVSGDRVGG [H2CA-3-D7-IGFR] | 3.7 | 3 | 0.3 | 0.8 |  |  |  |  | 
22 | SSIGGGFHENFYDWFSRQLSQSPPLK [H2CA-4-F7-IGFR] | 4.1 | 3.2 | 0.2 | 0.8 |  |  |  |  | 
23 | DYKDLSCLAYSRHGIWRPSTDLGLGRSVGEGSVSTRWRGYDWFEAAAGAP (not shown: rest of the phage display fusion (remainder of E-Tag, phage coat protein)) [40F-4-D1-IGFR] |  |  |  |  | 13.1 | 0.1 | 4.6 | 0.3 | 
24 | SLEEEWAQVECEVYGRGCPSGSLDESFYHWFERQLG [S542] |  |  |  |  |  |  |  |  | 0.027
25 | DYKDGHYFGSFYDAIDQLVAGMLPGAAAGAP (not shown: rest of the phage display fusion (remainder of E-Tag, phage coat protein)) [20E2A-3-A3-IGFR] |  |  |  |  | 1.9 | 0.5 | 3 | 1.5 | 
26 | DYKDAGSVTSFYDAMEQLVATGTSAAAAGAP (not shown: rest of the phage display fusion (remainder of E-Tag, phage coat protein)) [20E2A-3-A4-IGFR] |  |  |  |  | 1.4 | 0.7 | 2.5 | 1.8 | 
27 | SIEEEWAQIKCDVWGRGCPSESFYDWFERQL [S517] |  |  |  |  |  |  |  |  | 0.006
28 | QAVQPGFHEEFYDWFVRQVSTGVGGG [H2CA-4-H4-IGFR] | 4.2 | 4.1 | 0.2 | 1 |  |  |  |  | 
29 | GIISQSCPESFYDWFAGQVSDPWWCW [H2CA-4-G9-IGFR] | 16 | 9.5 | 0.1 | 0.6 |  |  |  |  | 
30 | NYRRQVFNGNFYDWFDRQVFSLVTPG [H2CA-3-D8-IGFR] | 4 | 7.2 | 0.3 | 1.8 |  |  |  |  | 
